The test concerns the target T1, TEAD.
T1 chain: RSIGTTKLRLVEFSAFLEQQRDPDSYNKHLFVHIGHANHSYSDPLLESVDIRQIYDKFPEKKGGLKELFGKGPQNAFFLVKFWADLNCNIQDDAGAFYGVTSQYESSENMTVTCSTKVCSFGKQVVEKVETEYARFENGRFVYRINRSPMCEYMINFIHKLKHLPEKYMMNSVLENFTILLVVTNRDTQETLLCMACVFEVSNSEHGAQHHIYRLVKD
The test is described as follows: IC50 for TEAD binding; method not named in the example (TR-FRET test is the filing's screening method). Background: TR-FRET usually uses a lanthanide donor and a delayed reading to cut background.

Positions of bridges follow the written chain, without caps; N, C: chain ends. Non-standard residues stand in square brackets, D forms with d. No end group written: not given here. hCys = N[C@@H](CCS)C(=O)O

B1: polypeptide of SEQ ID NO.: 9 (VPM(Hcy)LRKLPCSFCDPPE) (peptide)
peptide: VPM[hCys]LRKLPCSFCDPPE
modifications: disulfide 4-13
Consider B1, for which the IC50 is 25 nM. This counts as double-digit nanomolar.

B2: polypeptide of SEQ ID NO.: 8 (VPMCLRKLPESFCHPPE) (peptide)
peptide: VPMCLRKLPESFCHPPE
modifications: disulfide 4-13
In the case of B2, the IC50 was 28 nM.

As usually defined, the IC50 is the midpoint of a concentration-inhibition curve.

The record behind these values is patent publication US20170319648A1 (BAO KANG BIOMEDICAL HEALTHCARE, published 2017).
